Measurements: PMC8231982

How the values were obtained:
[1] = molecular target: HIV-1 gp120 monomer, strain HxBc2 (HIV-1, strain HxBc2) (UniProt P04578); assay: SPR
[2] = molecular target: HA H3 top domain (not stated (Figure 2 shows HA of influenza A virus X-31)) (UniProt P03437); assay: ELISA

Row | Substance | Kd [1] [nM] | Kd [2] [nM]
1 | CVN2L0, engineered linker-free domain-swapped dimer of cyanovirin-N (designed binder) | 49 | –
2 | SUMO-CVN2L0 fusion protein (designed binder) | – | 554
